Assay results taken from IntAct's records for PubMed 12642614.

B1: Myosin-2 (Saccharomyces cerevisiae), P19524 (parent)
chain: MSFEVGTRCWYPHKELGWIGAEVIKNEFNDGKYHLELQLEDDEIVSVDTKDLNNDKDQSLPLLRNPPILEATEDLTSLSYLNEPAVLHAIKQRYSQLNIYTYSGIVLIATNPFDRVDQLYTQDMIQAYAGKRRGELEPHLFAIAEEAYRLMKNDKQNQTIVVSGESGAGKTVSAKYIMRYFASVEEENSATVQHQVEMSETEQKILATNPIMEAFGNAKTTRNDNSSRFGKYLEILFDKDTSIIGARIRTYLLERSRLVYQPPIERNYHIFYQLMAGLPAQTKEELHLTDASDYFYMNQGGDTKINGIDDAKEYKITVDALTLVGITKETQHQIFKILAALLHIGNIEIKKTRNDASLSADEPNLKLACELLGIDAYNFAKWVTKKQIITRSEKIVSNLNYSQALVAKDSVAKFIYSALFDWLVENINTVLCNPAVNDQISSFIGVLDIYGFEHFEKNSFEQFCINYANEKLQQEFNQHVFKLEQEEYVKEEIEWSFIEFNDNQPCIDLIENKLGILSLLDEESRLPAGSDESWTQKLYQTLDKSPTNKVFSKPRFGQTKFIVSHYALDVAYDVEGFIEKNRDTVSDGHLEVLKASTNETLINILEGLEKAAKKLEEAKKLELEQAGSKKPGPIRTVNRKPTLGSMFKQSLIELMNTINSTNVHYIRCIKPNADKEAWQFDNLMVLSQLRACGVLETIRISCAGFPSRWTFEEFVLRYYILIPHEQWDLIFKKKETTEEDIISVVKMILDATVKDKSKYQIGNTKIFFKAGMLAYLEKLRSNKMHNSIVMIQKKIRAKYYRKQYLQISQAIKYLQNNIKGFIIRQRVNDEMKVNCATLLQAAYRGHSIRANVFSVLRTITNLQKKIRKELKQRQLKQEHEYNAAVTIQSKVRTFEPRSRFLRTKKDTVVVQSLIRRRAAQRKLKQLKADAKSVNHLKEVSYKLENKVIELTQNLASKVKENKEMTERIKELQVQVEESAKLQETLENMKKEHLIDIDNQKSKDMELQKTIENNLQSTEQTLKDAQLELEDMVKQHDELKEESKKQLEELEQTKKTLVEYQTLNGDLQNEVKSLKEEIARLQTAMSLGTVTTSVLPQTPLKDVMGGGASNFNNMMLENSDLSPNDLNLKSRSTPSSGNNHIDSLSVDRENGVNATQINEELYRLLEDTEILNQEITEGLLKGFEVPDAGVAIQLSKRDVVYPARILIIVLSEMWRFGLTKQSESFLAQVLTTIQKVVTQLKGNDLIPSGVFWLANVRELYSFVVFALNSILTEETFKNGMTDEEYKEYVSLVTELKDDFEALSYNIYNIWLKKLQKQLQKKAINAVVISESLPGFSAGETSGFLNKIFANTEEYTMDDILTFFNSIYWCMKSFHIENEVFHAVVTTLLNYVDAICFNELIMKRNFLSWKRGLQLNYNVTRLEEWCKTHGLTDGTECLQHLIQTAKLLQVRKYTIEDIDILRGICYSLTPAQLQKLISQYQVADYESPIPQEILRYVADIVKKEAALSSSGNDSKGHEHSSSIFITPETGPFTDPFSLIKTRKFDQVEAYIPAWLSLPSTKRIVDLVAQQVVQDGH
partner: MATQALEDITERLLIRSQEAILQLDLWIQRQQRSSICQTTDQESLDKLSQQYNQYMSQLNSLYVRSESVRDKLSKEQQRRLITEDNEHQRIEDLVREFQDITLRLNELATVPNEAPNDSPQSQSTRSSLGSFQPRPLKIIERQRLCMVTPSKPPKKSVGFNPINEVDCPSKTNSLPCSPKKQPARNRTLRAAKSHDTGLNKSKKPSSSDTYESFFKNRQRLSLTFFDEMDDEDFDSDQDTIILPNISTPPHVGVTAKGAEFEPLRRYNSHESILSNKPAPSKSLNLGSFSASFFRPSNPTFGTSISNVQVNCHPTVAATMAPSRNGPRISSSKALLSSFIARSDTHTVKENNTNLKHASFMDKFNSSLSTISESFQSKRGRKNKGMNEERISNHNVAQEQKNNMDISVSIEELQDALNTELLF
B2: vacuole-related protein 17 (Saccharomyces cerevisiae), P25591 (parent)
chain: B1 partner

Variants of: B1
Details: with vac17_yeast VAC17, P25591

Variant	effect of a mutation on the interaction
L1301P	disrupting interaction strength
N1304S	disrupting interaction strength
N1304D	disrupting interaction strength
G1248D	disrupting interaction strength
D1297N	disrupting interaction strength

Variants of: B1
Details: with vac17_yeast VAC17, P25591
Remark: another data set of the same source

Variant	effect of a mutation on the interaction
G1248N	decreasing interaction strength

Variants of: B1
Details: with vac17_yeast VAC17, P25591
Remark: another data set of the same source

Variant	effect of a mutation on the interaction
G1248D	decreasing interaction strength

Variants of: B2
Details: with myo2_yeast MYO2, P19524

Variant	effect of a mutation on the interaction
I140V	with no effect
